For this test, the target named is extracellular domain of basigin (CD147-ED). The experiment in a line: SPR; ProteOn XPR36, CD147-ED immobilised on an activated GLC chip; CD98-ED injected at 0, 3, 1.5, 0.75, 0.375, 0.1875 uM, association 180 s, dissociation 600 s; 1:1 binding model. For orientation: In SPR one partner is held on a chip, and binding of the other changes the refractive index at the surface.

The term Kd denotes the free concentration of one partner at which half of the binding sites on the other are occupied at equilibrium, for simple one-to-one binding. In the case of “extracellular domain of CD98 (CD98-ED, residues 111-530 of human 4F2hc) (domain or fragment)”, the Kd was 187 nM.

The record behind these values is paper PMC4594993.
